The chains are these.
B1: Pistol ribozyme (parent)
chain: GGGUCGUUGUUCCAUAAUCGCGUGGAUAUGGCACGCAAGUUUCUACCGGGCACCGUAAAUGUCCGACUGGAGCCGUUCGGGCGGCUAUAAACAGACCUCAGGCCCGAAGCGUGGCGGCACCUGCCGCCGGUGGUAAAAAAGAUCGGAAGAGCACACGUCU

In this data set the parent is B1. As to the kind of experiment: aptazyme ON/OFF ratio, guanine; higher = stronger switching; co-transcriptional cleavage with and without guanine.
In the case of U7A U8C G9C U10C U11C C12A C13G, the “aptazyme ON/OFF ratio” value was 1.03.

Take U7A U8C G9C U10C U11C C12A C13A: the “aptazyme ON/OFF ratio” value came out at 0.998. U7A U8C G9C U10C U11C C12A C13U: the “aptazyme ON/OFF ratio” value came out at 0.998. As to U7A U8C G9A U11G C12G C13G, the “aptazyme ON/OFF ratio” value was determined as 1.31. Under U7A U8C G9A U11G C12G C13A stands 1.19; under U7A U8C G9A U11G C12G C13U, 1.15; under U7A U8C G9C U10C U11C C13G, 1.05. With U7A U8C G9C U10C U11C C13U, the “aptazyme ON/OFF ratio” value turned out to be 0.981. Turning to U7A U8C G9C U10C U11C C13A, the “aptazyme ON/OFF ratio” value was determined as 1.03.

Consider U7A U8C G9U U10A, for which the “aptazyme ON/OFF ratio” value is 1.4. Under U7A U8C G9C U10C U11G C12G C13G stands 1.08; under U7A U8C G9C U10C U11G C12G C13U, 1.08. The same measure for U7A U8C G9C U10C U11G C12G C13A: 1.12; for U7A U8C G9A U11A C12U C13G: 1.13; for U7A U8C G9A U11A C12U C13A: 1.25.

U7A U8C G9A U11A C12U C13U: the “aptazyme ON/OFF ratio” value turned out to be 1.18. The same measure for U7A U8C G9U C12A C13U: 1.27. Under U7A U8C G9U C12A C13A stands 1.15; under U7A U8C G9U C12A C13G, 1.19. The same measure for U7A U8C G9C U11C C12G: 1.18; for U7A U8C G9C U11C C12A: 1.04; for U7A U8C G9C U11C C12U: 1.03.

On to U7A U8C G9C U10G U11G C12G C13G, for which the “aptazyme ON/OFF ratio” value is 1.13. U7A U8C G9C U10G U11G C12G C13A: the “aptazyme ON/OFF ratio” value is 1.08. Turning to U7A U8C G9C U10G U11G C12G C13U, the “aptazyme ON/OFF ratio” value was 1.05. U7A U8C G9C U10A C12G C13A: the “aptazyme ON/OFF ratio” value was 1.1. For U7A U8C G9C U10A C12G C13U, the “aptazyme ON/OFF ratio” value was 1.17. For the variant U7A U8C G9C U10A C12G C13G, the “aptazyme ON/OFF ratio” value was found to be 1.14. The same measure for U7A U8C G9C U10A U11A C12G C13G: 1.08; for U7A U8C G9C U10A U11A C12G C13U: 1.07. Consider U7A U8C G9C U10A U11A C12G C13A, for which the “aptazyme ON/OFF ratio” value is 1.05. The same measure for U7A U8C G9A U11C C12G C13G: 1.07; for U7A U8C G9A U11C C12G C13A: 1.13.

As for U7A U8C G9A U11C C12G C13U, the “aptazyme ON/OFF ratio” value was 1.16. The same measure for U7A U8C G9C C12G: 1.09; for U7A U8C G9C C12U: 1.06. For the variant U7A U8C G9C C12A, the “aptazyme ON/OFF ratio” value amounted to 1.12.

In the case of U7A U8C G9A U11C C13A, the “aptazyme ON/OFF ratio” value came to 1.06.

Take U7A U8C G9A U11C C13U: the “aptazyme ON/OFF ratio” value came to 1.1. The same measure for U7A U8C G9A U11C C13G: 1.08; for U7A U8C G9C U10A U11G C12A: 1.04; for U7A U8C G9C U10A U11G C12G: 1.12.

Regarding U7A U8C G9C U10A U11G C12U, the “aptazyme ON/OFF ratio” value amounted to 1.19.

U7A U8C G9C U11G C12G: the “aptazyme ON/OFF ratio” value amounted to 1.12. Under U7A U8C G9C U11G C12A stands 1.08.

U7A U8C G9C U11G C12U: the “aptazyme ON/OFF ratio” value was found to be 1.28. With U7A U8C G9C C12G C13G, the “aptazyme ON/OFF ratio” value is 1.09. The same measure for U7A U8C G9C C12G C13A: 1.07; for U7A U8C G9C C12G C13U: 1.18; for U7A U8C G9C U10G U11G C12U C13G: 1.1. Turning to U7A U8C G9C U10G U11G C12U C13A, the “aptazyme ON/OFF ratio” value worked out at 1.07.

As for U7A U8C G9C U10G U11G C12U C13U, the “aptazyme ON/OFF ratio” value came out at 1.1.

U7A U8C G9U U10A C13U: the “aptazyme ON/OFF ratio” value came to 1.15. Take U7A U8C G9U U10A C13A: the “aptazyme ON/OFF ratio” value is 1.18.

For the variant U7A U8C G9U U10A C13G, the “aptazyme ON/OFF ratio” value turned out to be 1.08. As to U7A U8C G9U C12U C13G, the “aptazyme ON/OFF ratio” value worked out at 1.12. For the variant U7A U8C G9U C12U C13U, the “aptazyme ON/OFF ratio” value came to 1.39. As to U7A U8C G9U C12U C13A, the “aptazyme ON/OFF ratio” value turned out to be 1.22. For U7A U8C G9C U11A C12U C13G, the “aptazyme ON/OFF ratio” value is 1.04. Under U7A U8C G9C U11A C12U C13A stands 1.09. Under U7A U8C G9C U11A C12U C13U stands 1.07; under U7A U8C G9C U10A U11G C12A C13A, 1.11. For U7A U8C G9C U10A U11G C12A C13G, the “aptazyme ON/OFF ratio” value turned out to be 1.12. Take U7A U8C G9C U10A U11G C12A C13U: the “aptazyme ON/OFF ratio” value stood at 1.11. For the variant U7A U8C G9C U10G U11G C12A C13U, the “aptazyme ON/OFF ratio” value stood at 1.08. Under U7A U8C G9C U10G U11G C12A C13G stands 1.07. With U7A U8C G9C U10G U11G C12A C13A, the “aptazyme ON/OFF ratio” value was 1.15.

Consider U7A U8C G9C U10C U11A C13U, for which the “aptazyme ON/OFF ratio” value was determined as 1.04. Under U7A U8C G9C U10C U11A C13G stands 1.08; under U7A U8C G9C U10C U11A C13A, 1.07; under U7A U8C G9A U11A C13U, 1.3.

On to U7A U8C G9A U11A C13G, for which the “aptazyme ON/OFF ratio” value was 1.09. The same measure for U7A U8C G9A U11A C13A: 1.16; for U7A U8C G9C U11A C13U: 1.05. Turning to U7A U8C G9C U11A C13G, the “aptazyme ON/OFF ratio” value worked out at 1.07. In the case of U7A U8C G9C U11A C13A, the “aptazyme ON/OFF ratio” value stood at 1.05. In the case of U7A U8C G9C C12U C13A, the “aptazyme ON/OFF ratio” value came to 1.08. The same measure for U7A U8C G9C C12U C13G: 1.06.

With U7A U8C G9C C12U C13U, the “aptazyme ON/OFF ratio” value worked out at 1.14. On to U7A U8C G9A U11C, for which the “aptazyme ON/OFF ratio” value was determined as 1.04.

Regarding U7A U8C G9A U11G, the “aptazyme ON/OFF ratio” value came to 1.28. The same measure for U7A U8C G9C U11C: 1. On to U7A U8C G9C U11G, for which the “aptazyme ON/OFF ratio” value was determined as 1.09. Under U7A U8C G9C U11A stands 1.11.

For the origin of these results see the RNAGym collection of RNA variant scans (doi:10.1021/acssynbio.7b00057).
